{
  "source": "patent US20100092974A1",
  "about": "“METHODS FOR SCREENING FOR MODULATORS OF CCRL2” (The Board of Trustees of the Leland Stanford Junior …, priority 2008, published 2010)",
  "key": {"[1]": {"tested_on": "mouse peritoneal mast cells", "assay": "immunofluorescence chemerin binding to peritoneal mast cells (WT or CCRL2 KO)"}, "[2]": {"molecular_target": "T1, huCCRL2 (Homo sapiens, UniProt O00421)", "T1 construct": "The coding regions of mCCRL2, huCCRL2, mCRTH2, and huCCR10 were amplified from genomic DNA; expressed in transfected cells", "T1 sequence (O00421 1-344)": "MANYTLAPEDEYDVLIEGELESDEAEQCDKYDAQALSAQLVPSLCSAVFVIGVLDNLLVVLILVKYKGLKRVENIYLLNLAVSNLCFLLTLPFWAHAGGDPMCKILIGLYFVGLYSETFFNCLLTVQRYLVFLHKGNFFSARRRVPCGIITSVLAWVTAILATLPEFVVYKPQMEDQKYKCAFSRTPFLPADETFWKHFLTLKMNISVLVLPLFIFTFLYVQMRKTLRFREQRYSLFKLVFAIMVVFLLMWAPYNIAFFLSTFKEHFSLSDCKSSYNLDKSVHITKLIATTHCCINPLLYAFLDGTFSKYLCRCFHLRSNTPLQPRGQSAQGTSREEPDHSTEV", "assay": "in vitro transwell chemotaxis, huCCRL2-HA/L1.2 transfectants", "assay_type": "cell-based", "details": "range of doses; CXCL12 and CCL19 act via endogenous CXCR4 and CCR7", "description": "For migration experiments using cell lines, 2.5×10^5 cells/100 μl chemotaxis media (RPMI+10% fetal calf serum) were added to the top wells of 5-um pore transwell inserts (Costar, Corning, N.Y., USA), and test samples in 600 μl media were added to the bottom wells. After incubating the transwell plates for 1.5 hours at 37° C., the bottom wells were harvested and flow cytometry was used to assess migration. For primary cell chemotaxis, 1×10^6 cells/100 μl were added to the top well, and, following a 2 hour incubation at 37° C., polystyrene beads (15.0 μm diameter, Polysciences, Warrington, Pa., USA) were added to each well to facilitate normalization of the cell count. The cells were then stained for c-kit, F4/80, and/or CD11b expression and analyzed by flow cytometry. A ratio was generated and percent input migration was calculated."}, "[3]": {"molecular_target": "T2, mCMKLR1 (Mus musculus, UniProt P97468)", "T2 construct": "expressed in transfected cells; host or cells: L1.2 mouse pre-B lymphoma cells", "T2 sequence (P97468 1-371)": "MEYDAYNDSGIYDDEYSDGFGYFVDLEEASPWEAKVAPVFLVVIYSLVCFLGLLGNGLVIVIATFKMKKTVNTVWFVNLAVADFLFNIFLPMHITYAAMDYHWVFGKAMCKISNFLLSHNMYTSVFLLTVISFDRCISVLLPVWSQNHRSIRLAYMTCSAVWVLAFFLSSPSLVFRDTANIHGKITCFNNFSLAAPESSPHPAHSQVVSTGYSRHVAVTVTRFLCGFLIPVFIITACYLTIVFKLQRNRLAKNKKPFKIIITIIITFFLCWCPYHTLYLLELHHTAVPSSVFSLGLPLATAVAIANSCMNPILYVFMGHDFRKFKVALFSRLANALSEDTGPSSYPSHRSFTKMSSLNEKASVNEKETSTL", "assay": "immunofluorescence-based chemerin-binding assay, mCMKLR1-HA L1.2", "details": "10 nM His8-tagged chemerin, anti-His6 PE"}, "[4]": {"molecular_target": "T3, mCCRL2 (Mus musculus, UniProt O35457)", "T3 construct": "The coding regions of mCCRL2, huCCRL2, mCRTH2, and huCCR10 were amplified from genomic DNA; expressed in transfected cells", "T3 sequence (O35457 1-360)": "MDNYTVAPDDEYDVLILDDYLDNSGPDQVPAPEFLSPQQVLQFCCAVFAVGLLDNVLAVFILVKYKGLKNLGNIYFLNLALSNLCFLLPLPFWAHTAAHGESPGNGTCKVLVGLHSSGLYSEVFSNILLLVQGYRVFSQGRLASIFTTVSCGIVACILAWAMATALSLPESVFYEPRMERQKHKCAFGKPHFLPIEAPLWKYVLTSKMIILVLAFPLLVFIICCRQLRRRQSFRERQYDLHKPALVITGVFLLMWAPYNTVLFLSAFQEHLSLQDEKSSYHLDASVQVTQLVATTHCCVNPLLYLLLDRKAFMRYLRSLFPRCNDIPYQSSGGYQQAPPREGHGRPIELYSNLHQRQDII", "assay": "immunofluorescence-based chemerin-binding assay, mCCRL2-HA L1.2", "details": "read-out: EC50, untagged chemerin vs His8-tagged chemerin binding; 10 nM His8-tagged serum form chemerin, 30 min on ice, anti-His6 PE"}, "[5]": {"molecular_target": "T3, mCCRL2", "assay": "chemerin internalization assay, mCCRL2-HA/L1.2 cells", "assay_type": "cell-based", "details": "10 nM His8-tagged serum form chemerin", "description": "The primary cells were also stained with F4/80 and c-kit mAbs. Secondary anti-His6 PE was added to the cells and incubated for 30 minutes on ice. […] The cells were incubated for 5 minutes on ice with either PBS or acid wash buffer (0.2 M acetic acid, 0.5 M NaCl), and then analyzed by flow cytometry. Mast cells were identified by gating on SSC^high F4/80^− c-kit^+ cells."}, "[6]": {"molecular_target": "T2, mCMKLR1", "assay": "receptor internalization assay, mCMKLR1-HA L1.2", "assay_type": "cell-based", "details": "100 nM chemerin", "description": "The cells were then washed with 200 μl PBS and stained with mouse anti-HA (Covance, Inc) or mIgG1 isotype control, followed by staining with secondary anti-mouse IgG1 PE, fixed, and analyzed by flow cytometry."}, "[7]": {"molecular_target": "T4, FcRεI (Mus musculus, UniProt P20489)", "T4 construct": "endogenous in cells; host or cells: mouse peritoneal mast cells", "T4 sequence (P20489 24-250)": "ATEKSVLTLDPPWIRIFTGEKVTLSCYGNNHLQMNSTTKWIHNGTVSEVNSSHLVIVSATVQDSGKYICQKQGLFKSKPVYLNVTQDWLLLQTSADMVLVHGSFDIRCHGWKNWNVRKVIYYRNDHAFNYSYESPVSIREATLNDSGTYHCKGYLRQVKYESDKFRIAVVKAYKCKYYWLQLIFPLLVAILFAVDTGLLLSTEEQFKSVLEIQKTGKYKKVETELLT", "T4 sequence (P20490 1-235 partner)": "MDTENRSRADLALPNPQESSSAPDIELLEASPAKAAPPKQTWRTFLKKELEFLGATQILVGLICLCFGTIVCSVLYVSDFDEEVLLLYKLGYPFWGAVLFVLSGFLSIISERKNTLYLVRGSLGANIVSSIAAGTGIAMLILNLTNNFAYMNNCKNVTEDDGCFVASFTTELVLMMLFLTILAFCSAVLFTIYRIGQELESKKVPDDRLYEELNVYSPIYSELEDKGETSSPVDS", "T4 sequence (P20491 19-86 partner)": "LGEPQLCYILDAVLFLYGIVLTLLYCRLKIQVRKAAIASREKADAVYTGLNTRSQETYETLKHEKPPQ", "assay": "IgE binding to FcRεI on peritoneal mast cells (specificity control)", "details": "1000 nM chemerin"}},
  "data": [
    {"substance": "chemerin: protein ligand for signaling receptor CMKLR1; serum form human chemerin expressed in baculovirus-infected insect cells, His8-tag removed", "values": [
      {"measurement": "binding to freshly isolated peritoneal mast cells", "setting": "[1]; WT mice", "result": "bound"},
      {"measurement": "preference for binding of the pro-form vs. the active serum form", "setting": "[1]; WT peritoneal mast cells", "result": "no obvious preference"},
      {"measurement": "binding to peritoneal mast cells", "setting": "[1]; mCCRL2 KO mice", "result": "did not bind"},
      {"measurement": "transwell migration", "setting": "[2]", "result": "neither human nor mouse CCRL2-HA/L1.2 transfectants migrated"},
      {"measurement": "chemerin binding", "setting": "[3]", "result": "unable to detect"},
      {"measurement": "EC50", "setting": "[4]", "result": 45, "unit": "nM"},
      {"measurement": "acid resistant cell-associated chemerin", "setting": "[5]; 5 min at 37° C.", "result": "essentially no"},
      {"measurement": "acid resistant cell-associated chemerin", "setting": "[5]; 60 min at 37° C.", "result": "very little"},
      {"measurement": "time to ligand-induced receptor internalization", "setting": "[6]", "result": "≤ 15", "unit": "min"},
      {"measurement": "binding of IgE to FcRεI", "setting": "[7]", "result": "unaffected"}
    ]}
  ]
}
